B1: GS2297: dsRNA trigger targeting B. cinerea Bcrpb5 (XM_024693733.1); trigger SEQ ID NO 23, RNA 35, reverse complement 47 (nucleic acid, listed as Botrytis cinerea)
sense: UGCACCAUCAGGUCCCGCUCAAAAGAUUAUUCCCGCUGUCGCAUCCGAGACAAGAAUCGAGACCUUCGUCGAGCAAGAUUUACUUGUCAAUAUUACACAUCAUGAAUUGGUUCCCAAGCAUGUUUUGUUAAGUAGAGAAGAGAGGGCCAAGUUGUUGUCAAGAUAUAGAUUGAAGGAUACUCAACUCCCACGUAUUCAGGCUGCGGAUCCAGUUGCAAAAUAUUUGGGAUUGAGAAGAGGGCAGGUCGUUAAGAUUAUCAGAAAGUCGGAAACUGCUGGUCGUUAUGCCAGUUACAGAUUGUGCGUAUAAUGGAGCUGGAGGGUAGAUGAUUUGGUGUUAAUAACUAGGGAGUUUCUUGGGAAAAAUUUGCAUAUUUGGGGAAGGCGUAAUAGGCUGGAAGAAAGACUGAGGAUGAGAUUGUCUAUUUUGGCUUUCCAGGAAGCAAUACUUUGAGACAUGAAAUUUGAUAUUAAAUUUCUUGUUCUGUAUAUUUCUGAUAGUUUCAGAGCUUUUCAAUAAGAUCUAUUCUACAGUUUUAAGAAUCCAGACUCACCCUUUGAGAAGCUCAUACAAAGUUCCUUCCUA
antisense: UAGGAAGGAACUUUGUAUGAGCUUCUCAAAGGGUGAGUCUGGAUUCUUAAAACUGUAGAAUAGAUCUUAUUGAAAAGCUCUGAAACUAUCAGAAAUAUACAGAACAAGAAAUUUAAUAUCAAAUUUCAUGUCUCAAAGUAUUGCUUCCUGGAAAGCCAAAAUAGACAAUCUCAUCCUCAGUCUUUCUUCCAGCCUAUUACGCCUUCCCCAAAUAUGCAAAUUUUUCCCAAGAAACUCCCUAGUUAUUAACACCAAAUCAUCUACCCUCCAGCUCCAUUAUACGCACAAUCUGUAACUGGCAUAACGACCAGCAGUUUCCGACUUUCUGAUAAUCUUAACGACCUGCCCUCUUCUCAAUCCCAAAUAUUUUGCAACUGGAUCCGCAGCCUGAAUACGUGGGAGUUGAGUAUCCUUCAAUCUAUAUCUUGACAACAACUUGGCCCUCUCUUCUCUACUUAACAAAACAUGCUUGGGAACCAAUUCAUGAUGUGUAAUAUUGACAAGUAAAUCUUGCUCGACGAAGGUCUCGAUUCUUGUCUCGGAUGCGACAGCGGGAAUAAUCUUUUGAGCGGGACCUGAUGGUGCA
B2: GS2303: dsRNA trigger targeting B. cinerea Bcded1 (XM_001550339.2); trigger SEQ ID NO 24, RNA 36, reverse complement 48 (nucleic acid, listed as Botrytis cinerea)
sense: GGGCUAUAUAAGCUUUCAUCUAGGUUUUCCAAGAAACGCAUUACGAUAGACAUGUUCUCCAAAAAUCUUACUGGUCCUGCUUUCAGCAUUUCCAUGGAUCAUGAAGUCCUCCACUAUGGAAGAUUUGCAAAAUAUUUUCGACAUUGCAUUUUGCUGCAUUUCGCAUUUCUAGAUAGAAAAAAAGUGGGAUUCAUAUUCUCGAUAUUUUCUUCGUUGUCUUUUAUUCACAAGACACAUGGCAAGGGAGGAUACCAUUUGAGAGCUUGAAUUGAAGGCUUUCCUCUUACUUUUUUUAUUUUUCACAUCAUCUACGAGUGGGCGUCUUUUACGAUCAAAUCGAUAUACGACAGUGGCACAAAAUAGAAUAGGCAUUUCUCUUCUUAAAAAAGAUUUAAGGGAAGAGUUGGUGCUUGUUCUCUAUAACGCUGAUGGCAUUCGGAAGUGCUCCUGUCCAUUCAGGCUGAGACUGAGACCCAAAAUGUUGGCAGGUACGGCAGAAAGAAGUCUGCUUCAUAUGAUUGAUGGAGGAAGAAAGAAAUAUGGAAUGCGAUGGAUGAGUAAUUACUUUAAAUGAAUAUGAAAA
antisense: UUUUCAUAUUCAUUUAAAGUAAUUACUCAUCCAUCGCAUUCCAUAUUUCUUUCUUCCUCCAUCAAUCAUAUGAAGCAGACUUCUUUCUGCCGUACCUGCCAACAUUUUGGGUCUCAGUCUCAGCCUGAAUGGACAGGAGCACUUCCGAAUGCCAUCAGCGUUAUAGAGAACAAGCACCAACUCUUCCCUUAAAUCUUUUUUAAGAAGAGAAAUGCCUAUUCUAUUUUGUGCCACUGUCGUAUAUCGAUUUGAUCGUAAAAGACGCCCACUCGUAGAUGAUGUGAAAAAUAAAAAAAGUAAGAGGAAAGCCUUCAAUUCAAGCUCUCAAAUGGUAUCCUCCCUUGCCAUGUGUCUUGUGAAUAAAAGACAACGAAGAAAAUAUCGAGAAUAUGAAUCCCACUUUUUUUCUAUCUAGAAAUGCGAAAUGCAGCAAAAUGCAAUGUCGAAAAUAUUUUGCAAAUCUUCCAUAGUGGAGGACUUCAUGAUCCAUGGAAAUGCUGAAAGCAGGACCAGUAAGAUUUUUGGAGAACAUGUCUAUCGUAAUGCGUUUCUUGGAAAACCUAGAUGAAAGCUUAUAUAGCCC
B3: GS2280: dsRNA trigger targeting B. cinerea Bcmcm4 (XM_024696090.1); trigger SEQ ID NO 21, RNA 33, reverse complement 45 (nucleic acid, listed as Botrytis cinerea)
sense: AAUGUCCUCGUCCGGUUUGUAAAUCUCCAAACUCCAUGCAGAUUGUACACAACAGGUCUGGAUUCAUGGAUAAGCAAGUUAUCAAGCUUCAAGAAACUCCAGAUUCCGUUCCUGCUGGUCAAACACCACAUUCCGUCUCGAUGUGUGCAUAUGAUGAGUUGGUGGAUCUGUGCAAAGCUGGUGACAGAGUUGAGAUUACUGGUAUCUUCAAAGCUAGUCCAGUUCGUGUCAAUCCUCGCCAAAGAACUCUCAAAAGCAUUUAUAAAACGUACAUCGACGUUUUACACAUUCAAAAGGUUGACAAGAAAAGAAUGGGAAUUGAUGCUUCGACCGUUGAGCAAGAAAUAUCCGAUCAGUUGACAGGCAACAUUGAAGAAACUAGAAAGGUUUCUGAAGAGGAGGAAGAAAAAAUCAGAGAAACCGCUGCAAGACCCGAUAUCUACGAACUUCUAUCUCGAUCCCUCGCACCUAGUAUUUUUGAGAUGGACGAUGUUAAGAAGGGUAUCUUGCUUCAAUUAUUUGGUGGAACUAACAAGUCUUUCGAAAAAGGAGGAAGUCCAAAAUACAGAGGAGAUAUCAAUAUUCUAUUGU
antisense: ACAAUAGAAUAUUGAUAUCUCCUCUGUAUUUUGGACUUCCUCCUUUUUCGAAAGACUUGUUAGUUCCACCAAAUAAUUGAAGCAAGAUACCCUUCUUAACAUCGUCCAUCUCAAAAAUACUAGGUGCGAGGGAUCGAGAUAGAAGUUCGUAGAUAUCGGGUCUUGCAGCGGUUUCUCUGAUUUUUUCUUCCUCCUCUUCAGAAACCUUUCUAGUUUCUUCAAUGUUGCCUGUCAACUGAUCGGAUAUUUCUUGCUCAACGGUCGAAGCAUCAAUUCCCAUUCUUUUCUUGUCAACCUUUUGAAUGUGUAAAACGUCGAUGUACGUUUUAUAAAUGCUUUUGAGAGUUCUUUGGCGAGGAUUGACACGAACUGGACUAGCUUUGAAGAUACCAGUAAUCUCAACUCUGUCACCAGCUUUGCACAGAUCCACCAACUCAUCAUAUGCACACAUCGAGACGGAAUGUGGUGUUUGACCAGCAGGAACGGAAUCUGGAGUUUCUUGAAGCUUGAUAACUUGCUUAUCCAUGAAUCCAGACCUGUUGUGUACAAUCUGCAUGGAGUUUGGAGAUUUACAAACCGGACGAGGACAUU

The first series has as its system Botrytis cinerea conidia. The series can be described thus: In vitro liquid-based assay (fungal biomass, 96-well plates, Cytation 5). The series is classed as cell-based. As to conditions: 25 ppm dsRNA, co-incubated with conidia for three days, vs untreated control. The method, boiled down:
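Conidia (5000/mL stock) were co-incubated with dsRNA or control treatments in pH 6.0 minimal medium. Incubation ran 72 h at 23 °C, shaking at 120 rpm under continuous light. Fungal biomass was measured by brightfield imaging (8 slices per well, 2.5× lens) and expressed as average reduction versus control.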
In the case of B1, the “Average % Reduction in Biomass” value is 11%.
On the same count and under the same terms, as for B2, the figure is 13%; as for B3, 16%.

The same series, now with this note: 150 ppm dsRNA, co-incubated with conidia for three days, vs untreated control.
With B1, the “Average % Reduction in Biomass” value is recorded as 24%.
With B2, the “Average % Reduction in Biomass” value is 26%.
On the same count and under the same terms, next, B3: 33%.

A further series deals with Botrytis cinerea B05.10 isolate. The series can be described thus: Greenhouse whole plant assay (tomato 'Lanai', disease severity). The following applies: 8 g ai/ha; final rating day (rating #3); three runs; four-week-old 'Lanai' tomato plant. It counts as in vivo.
On to B1, for which the “% control” value came to 6%.
On the same count and under the same terms, next, B2: 0%; B3: 0%.

Still in this series, the particulars now being: 25 g ai/ha; final rating day (rating #3); three runs; four-week-old 'Lanai' tomato plant.
For the molecule B1, the “% control” value is given as 29%.
For B2, the “% control” value was 34%.
On the same count and under the same terms, next, B3: 36%.

The values above are taken from US20230189818A1, “RNA-BASED CONTROL OF BOTRYTIS” (priority 2021, published 2023).
